Two molecules from paper PMC7820984 can be followed below.

Where a chain is given by its changes, count along the chain named.

This series deals with T1, MBP-WRKY21 (Oryza sativa, UniProt Q5FZT4 1-280).
T1 sequence: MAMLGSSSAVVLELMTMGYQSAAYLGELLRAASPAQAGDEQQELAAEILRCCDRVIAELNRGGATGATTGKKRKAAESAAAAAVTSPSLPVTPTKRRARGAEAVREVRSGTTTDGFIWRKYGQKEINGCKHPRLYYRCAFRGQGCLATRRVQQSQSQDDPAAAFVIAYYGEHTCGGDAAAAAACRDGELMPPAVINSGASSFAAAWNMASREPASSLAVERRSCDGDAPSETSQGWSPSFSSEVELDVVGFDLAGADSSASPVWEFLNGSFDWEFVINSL
The series can be described thus: EMSA. Background: In EMSA bound probe runs differently from free probe, usually more slowly.

B1: F2 (Wz and Wy W-boxes) (dsDNA)
DNA 1: TTTTAATAGATGACGCCGTTGACTTTTTCTTACATATTTGACCATTCGTCTTATCCAAAA
DNA 2: TTTTGGATAAGACGAATGGTCAAATATGTAAGAAAAAGTCAACGGCGTCATCTATTAAAA
As to B1, the binding result is reported as “binds”.

B2: F2-m (Wz and Wy mutated) (dsDNA)
DNA 1: B1 DNA 1 with C23A, C42A
DNA 2: B1 DNA 2 with G19T, G38T
With B2, the binding result is “no binding”.
